The test concerns the target CD99 antigen (Origene, Sku #TP304058) (UniProt P14209). Kind of test: ELISA on coated CD99 antigen. A general note: An ELISA detects its analyte on a solid surface through an enzyme-linked reagent.

Chain of CD99 antigen (Origene, Sku #TP304058) (P14209 23-185 limits assumed): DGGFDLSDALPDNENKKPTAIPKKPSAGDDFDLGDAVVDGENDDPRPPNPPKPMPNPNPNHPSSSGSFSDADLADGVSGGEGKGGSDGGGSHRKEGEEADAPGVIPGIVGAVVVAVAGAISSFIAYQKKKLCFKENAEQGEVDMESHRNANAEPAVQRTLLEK

B1: 1H3H9 (antibody, V domains shown)
VH: EVQLQQSGAELVKPGASVKLSCTASGFDIKDTYIHWVKQRPEQGLEWIGRIDPANGDTRYDPEFQGKASLTADTSSNTAYLQFSNLTSEDTAVYYCARRGGLSWGQGTTLTVSS
VL: DIQMTQSPASLSASVGETVTITCRASGNIHNYLAWYQQKQGKSPQLLVYNAKTLADGVPSRFSGSGSGTQYSLKINSLQPEDFGSYYCQHFWSTPWTFGGGTKLEIK
In the case of B1, the ELISA absorbance was found to be 0.658.

Source of the values: patent US20230257477A1.
